{
  "source": "IntAct's records for PubMed 35512704",
  "parents": {"B1": {"name": "Speckle-type POZ protein (Homo sapiens), O43791 (parent)", "chain": "MSRVPSPPPPAEMSSGPVAESWCYTQIKVVKFSYMWTINNFSFCREEMGEVIKSSTFSSGANDKLKWCLRVNPKGLDEESKDYLSLYLLLVSCPKSEVRAKFKFSILNAKGEETKAMESQRAYRFVQGKDWGFKKFIRRDFLLDEANGLLPDDKLTLFCEVSVVQDSVNISGQNTMNMVKVPECRLADELGGLWENSRFTDCCLCVAGQEFQAHKAILAARSPVFSAMFEHEMEESKKNRVEINDVEPEVFKEMMCFIYTGKAPNLDKMADDLLAAADKYALERLKVMCEDALCSNLSVENAAEILILADLHSADQLKTQAVDFINYHASDVLETSGWKSMVVSHPHLVAEAYRSLASAQCPFLGPPRKRLKQS", "partner": "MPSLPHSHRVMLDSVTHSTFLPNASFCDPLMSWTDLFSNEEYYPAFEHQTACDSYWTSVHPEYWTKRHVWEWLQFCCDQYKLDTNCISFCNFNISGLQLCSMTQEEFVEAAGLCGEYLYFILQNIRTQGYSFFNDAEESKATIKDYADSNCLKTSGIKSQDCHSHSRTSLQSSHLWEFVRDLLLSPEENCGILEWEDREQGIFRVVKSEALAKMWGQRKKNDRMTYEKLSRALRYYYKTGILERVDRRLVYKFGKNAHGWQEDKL"}, "B2": {"name": "Speckle-type POZ protein (Homo sapiens), O43791 (parent)", "chain": "B1 chain", "partner": "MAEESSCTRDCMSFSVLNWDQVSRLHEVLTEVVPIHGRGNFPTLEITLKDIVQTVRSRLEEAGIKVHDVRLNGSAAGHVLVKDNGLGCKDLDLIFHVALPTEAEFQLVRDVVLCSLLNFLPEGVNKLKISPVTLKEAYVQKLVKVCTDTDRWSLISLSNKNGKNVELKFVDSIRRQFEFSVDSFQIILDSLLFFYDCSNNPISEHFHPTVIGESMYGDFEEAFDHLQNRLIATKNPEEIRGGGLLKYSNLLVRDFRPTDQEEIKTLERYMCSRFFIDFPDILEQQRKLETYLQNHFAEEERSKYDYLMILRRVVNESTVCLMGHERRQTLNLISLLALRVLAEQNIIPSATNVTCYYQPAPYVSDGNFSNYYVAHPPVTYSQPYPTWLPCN"}, "B3": {"name": "Speckle-type POZ protein (Homo sapiens), O43791 (parent)", "chain": "B1 chain", "partner": "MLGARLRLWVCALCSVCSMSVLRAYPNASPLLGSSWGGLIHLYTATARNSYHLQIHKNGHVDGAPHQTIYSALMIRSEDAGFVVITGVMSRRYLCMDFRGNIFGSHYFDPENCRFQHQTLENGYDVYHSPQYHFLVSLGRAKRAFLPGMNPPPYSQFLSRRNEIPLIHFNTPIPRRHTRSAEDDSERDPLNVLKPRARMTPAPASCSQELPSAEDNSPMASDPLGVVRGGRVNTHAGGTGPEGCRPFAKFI"}, "B4": {"name": "Speckle-type POZ protein (Homo sapiens), O43791 (parent)", "chain": "B1 chain", "partner": "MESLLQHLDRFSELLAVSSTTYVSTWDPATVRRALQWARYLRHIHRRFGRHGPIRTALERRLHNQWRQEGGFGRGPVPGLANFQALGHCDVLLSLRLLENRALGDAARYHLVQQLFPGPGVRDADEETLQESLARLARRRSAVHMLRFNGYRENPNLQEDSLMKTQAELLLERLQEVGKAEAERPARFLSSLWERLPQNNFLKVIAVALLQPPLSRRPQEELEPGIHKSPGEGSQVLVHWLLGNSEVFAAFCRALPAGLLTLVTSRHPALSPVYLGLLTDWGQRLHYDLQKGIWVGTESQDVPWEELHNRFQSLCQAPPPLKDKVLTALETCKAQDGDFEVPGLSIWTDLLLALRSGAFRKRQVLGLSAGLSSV"}, "B5": {"name": "Speckle-type POZ protein (Homo sapiens), O43791 (parent)", "chain": "B1 chain", "partner": "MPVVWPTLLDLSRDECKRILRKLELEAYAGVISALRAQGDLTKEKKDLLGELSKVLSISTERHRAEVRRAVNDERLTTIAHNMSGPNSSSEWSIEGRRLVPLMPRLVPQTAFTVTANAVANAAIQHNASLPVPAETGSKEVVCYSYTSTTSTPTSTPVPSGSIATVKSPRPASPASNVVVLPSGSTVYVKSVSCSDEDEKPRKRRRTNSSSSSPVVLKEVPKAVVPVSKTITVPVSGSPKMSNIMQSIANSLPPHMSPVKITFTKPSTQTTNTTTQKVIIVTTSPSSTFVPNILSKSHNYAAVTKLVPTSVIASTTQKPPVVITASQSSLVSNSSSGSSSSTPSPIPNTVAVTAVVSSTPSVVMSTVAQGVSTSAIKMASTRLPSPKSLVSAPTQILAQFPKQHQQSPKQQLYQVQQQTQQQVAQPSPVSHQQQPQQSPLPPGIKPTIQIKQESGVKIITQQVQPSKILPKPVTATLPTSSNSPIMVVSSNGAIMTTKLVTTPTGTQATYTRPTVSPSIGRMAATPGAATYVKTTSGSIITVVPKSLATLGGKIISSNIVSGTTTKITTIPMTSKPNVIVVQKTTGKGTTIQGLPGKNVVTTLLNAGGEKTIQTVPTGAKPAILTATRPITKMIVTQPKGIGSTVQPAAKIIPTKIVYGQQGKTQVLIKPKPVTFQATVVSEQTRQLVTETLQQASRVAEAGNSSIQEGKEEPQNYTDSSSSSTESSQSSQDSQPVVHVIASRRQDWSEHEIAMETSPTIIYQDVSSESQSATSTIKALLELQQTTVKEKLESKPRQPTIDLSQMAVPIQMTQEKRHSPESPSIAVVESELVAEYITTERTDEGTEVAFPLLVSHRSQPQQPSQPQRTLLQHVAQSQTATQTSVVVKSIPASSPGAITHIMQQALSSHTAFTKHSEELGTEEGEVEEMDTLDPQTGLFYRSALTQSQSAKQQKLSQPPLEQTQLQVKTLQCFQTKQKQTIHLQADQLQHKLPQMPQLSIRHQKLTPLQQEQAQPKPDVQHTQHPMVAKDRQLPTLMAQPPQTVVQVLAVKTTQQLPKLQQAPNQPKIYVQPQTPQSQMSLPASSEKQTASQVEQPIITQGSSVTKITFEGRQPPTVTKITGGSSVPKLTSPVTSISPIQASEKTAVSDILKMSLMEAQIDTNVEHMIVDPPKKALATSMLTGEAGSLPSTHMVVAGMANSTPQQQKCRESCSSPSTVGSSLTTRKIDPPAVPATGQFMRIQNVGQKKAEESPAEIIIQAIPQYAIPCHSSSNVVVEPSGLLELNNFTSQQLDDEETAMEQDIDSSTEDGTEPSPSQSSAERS"}, "B6": {"name": "Speckle-type POZ protein (Homo sapiens), O43791 (parent)", "chain": "B1 chain", "partner": "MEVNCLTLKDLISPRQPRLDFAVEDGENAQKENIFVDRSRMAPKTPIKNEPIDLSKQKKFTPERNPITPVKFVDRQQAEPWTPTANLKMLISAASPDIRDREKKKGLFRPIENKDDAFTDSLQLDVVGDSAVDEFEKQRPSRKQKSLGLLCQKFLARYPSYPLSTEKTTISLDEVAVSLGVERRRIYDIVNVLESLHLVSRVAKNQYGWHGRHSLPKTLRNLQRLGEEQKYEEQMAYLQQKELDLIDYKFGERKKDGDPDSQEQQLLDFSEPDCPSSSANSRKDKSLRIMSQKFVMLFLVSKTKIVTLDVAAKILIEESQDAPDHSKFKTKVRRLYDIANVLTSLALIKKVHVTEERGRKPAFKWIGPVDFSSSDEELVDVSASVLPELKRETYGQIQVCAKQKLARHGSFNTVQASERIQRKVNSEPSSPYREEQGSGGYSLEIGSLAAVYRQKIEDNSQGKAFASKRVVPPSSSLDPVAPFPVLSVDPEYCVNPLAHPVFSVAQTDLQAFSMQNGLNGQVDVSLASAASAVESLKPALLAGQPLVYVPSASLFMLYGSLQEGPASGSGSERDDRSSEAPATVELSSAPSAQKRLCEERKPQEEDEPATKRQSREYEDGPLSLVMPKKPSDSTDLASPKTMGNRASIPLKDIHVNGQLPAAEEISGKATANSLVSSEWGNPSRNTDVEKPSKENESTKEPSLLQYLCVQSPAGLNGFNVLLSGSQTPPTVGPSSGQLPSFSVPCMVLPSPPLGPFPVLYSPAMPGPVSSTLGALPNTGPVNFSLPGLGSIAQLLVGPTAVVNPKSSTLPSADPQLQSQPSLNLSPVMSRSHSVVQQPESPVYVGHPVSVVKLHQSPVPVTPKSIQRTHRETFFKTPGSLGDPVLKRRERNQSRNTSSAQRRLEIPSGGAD"}},
  "data": [
    {"variants_of": "B1", "conditions": "with elf5_human ELF5, Q9UKW6", "values": [
      {"variant": "F133V", "effect of a mutation on the interaction": "with no effect"}
    ]},
    {"variants_of": "B1", "conditions": "with elf5_human ELF5, Q9UKW6", "remark": "another data set of the same source", "values": [
      {"variant": "F133L", "effect of a mutation on the interaction": "with no effect"}
    ]},
    {"variants_of": "B1", "conditions": "with elf5_human ELF5, Q9UKW6", "remark": "another data set of the same source", "values": [
      {"variant": "Y87C", "effect of a mutation on the interaction": "with no effect"}
    ]},
    {"variants_of": "B1", "conditions": "with elf5_human ELF5, Q9UKW6", "remark": "another data set of the same source", "values": [
      {"variant": "F102C", "effect of a mutation on the interaction": "with no effect"}
    ]},
    {"variants_of": "B2", "conditions": "with tet5c_human TENT5C", "values": [
      {"variant": "Y87C", "effect of a mutation on the interaction": "with no effect"}
    ]},
    {"variants_of": "B2", "conditions": "with tet5c_human TENT5C", "remark": "another data set of the same source", "values": [
      {"variant": "F133V", "effect of a mutation on the interaction": "with no effect"}
    ]},
    {"variants_of": "B2", "conditions": "with tet5c_human TENT5C", "remark": "another data set of the same source", "values": [
      {"variant": "F133L", "effect of a mutation on the interaction": "with no effect"}
    ]},
    {"variants_of": "B2", "conditions": "with tet5c_human TENT5C", "remark": "another data set of the same source", "values": [
      {"variant": "F102C", "effect of a mutation on the interaction": "with no effect"}
    ]},
    {"variants_of": "B3", "conditions": "with fgf23_human FGF23, Q9GZV9", "values": [
      {"variant": "F102C", "effect of a mutation on the interaction": "with no effect"}
    ]},
    {"variants_of": "B3", "conditions": "with fgf23_human FGF23, Q9GZV9", "remark": "another data set of the same source", "values": [
      {"variant": "Y87C", "effect of a mutation on the interaction": "with no effect"}
    ]},
    {"variants_of": "B3", "conditions": "with fgf23_human FGF23, Q9GZV9", "remark": "another data set of the same source", "values": [
      {"variant": "F133V", "effect of a mutation on the interaction": "with no effect"}
    ]},
    {"variants_of": "B3", "conditions": "with fgf23_human FGF23, Q9GZV9", "remark": "another data set of the same source", "values": [
      {"variant": "F133L", "effect of a mutation on the interaction": "with no effect"}
    ]},
    {"variants_of": "B4", "conditions": "with fancf_human FANCF", "values": [
      {"variant": "F133L", "effect of a mutation on the interaction": "with no effect"}
    ]},
    {"variants_of": "B4", "conditions": "with fancf_human FANCF", "remark": "another data set of the same source", "values": [
      {"variant": "F133V", "effect of a mutation on the interaction": "with no effect"}
    ]},
    {"variants_of": "B4", "conditions": "with fancf_human FANCF", "remark": "another data set of the same source", "values": [
      {"variant": "F102C", "effect of a mutation on the interaction": "with no effect"}
    ]},
    {"variants_of": "B4", "conditions": "with fancf_human FANCF", "remark": "another data set of the same source", "values": [
      {"variant": "Y87C", "effect of a mutation on the interaction": "causing an interaction"}
    ]},
    {"variants_of": "B5", "conditions": "with emsy_human EMSY", "values": [
      {"variant": "F133V", "effect of a mutation on the interaction": "with no effect"}
    ]},
    {"variants_of": "B5", "conditions": "with emsy_human EMSY", "remark": "another data set of the same source", "values": [
      {"variant": "F133L", "effect of a mutation on the interaction": "with no effect"}
    ]},
    {"variants_of": "B5", "conditions": "with emsy_human EMSY", "remark": "another data set of the same source", "values": [
      {"variant": "Y87C", "effect of a mutation on the interaction": "with no effect"}
    ]},
    {"variants_of": "B5", "conditions": "with emsy_human EMSY", "remark": "another data set of the same source", "values": [
      {"variant": "F102C", "effect of a mutation on the interaction": "with no effect"}
    ]},
    {"variants_of": "B6", "conditions": "with e2f7_human E2F7, Q96AV8", "values": [
      {"variant": "F133V", "effect of a mutation on the interaction": "with no effect"}
    ]},
    {"variants_of": "B6", "conditions": "with e2f7_human E2F7, Q96AV8", "remark": "another data set of the same source", "values": [
      {"variant": "F133L", "effect of a mutation on the interaction": "with no effect"}
    ]},
    {"variants_of": "B6", "conditions": "with e2f7_human E2F7, Q96AV8", "remark": "another data set of the same source", "values": [
      {"variant": "Y87C", "effect of a mutation on the interaction": "with no effect"}
    ]}
  ]
}
